Results reported in patent US20190127481A1 (UNIVERSIT T Z RICH, published 2019).

What was measured:
[1] = biological target: T1, HER2 (form in the assay not stated) (human, UniProt P04626 23-652, limits assumed); test: method not stated
[2] = biological target: T1, HER2 (form in the assay not stated); test: method and HER2 form not stated
[3] = biological target: T2, HER2 (ErbB2/Neu) on the surface of HER2-overexpressing cancer cells (human, UniProt P04626 23-1255); test: dissociation from BT474 cells by flow cytometry in the presence of a competing DARPin
T2 construct: whole, on cells; also called HER2 on BT474, SkBr3, SkOv3 cells

[4] = biological target: T2, HER2 (ErbB2/Neu) on the surface of …; test: flow cytometry on intact BT474 cells, Alexa488-labelled agent
Description: Cells were detached by collagenase and EDTA for 5 min at 37° C. The solution was quenched by addition of medium and centrifuged at 300 g for 3 min. Cells were washed twice in warm PBS. […] Internalization was blocked by incubation in PBS containing 0.2% NaN₃ and 1% BSA for 30 min at 37° C.
For each time point, a 1 ml aliquot of cells is withdrawn and subjected to FACS. Since the applied concentrations of the labeled ligand conjugates are very low, and since the time resolution of the measurement is to be maintained to ensure the accuracy of the on-rate determination, the samples are processed without further washing. For each time point, at least 10⁴ intact cells (gated as a uniform population on a FSC/SSC scatter plot) are counted, and the MFI (mean fluorescence intensity) is recorded.
Corresponding to 100 μl cell suspension, samples were washed twice in 1 ml PBS (0.2% NaN₃, 1% BSA) and centrifuged at 600 g for 30 sec at room temperature. Cells were resuspended in 1 ml PBS (0.2% NaN₃, 1% BSA) containing 100 nM of equivalent unlabeled binding agent. The dissociation reaction was incubated for the indicated times (15, 30, 60, 120, 180 and 240 min) at room temperature while continuously stirring in the dark. Dissociation was stopped by placing the cell pellets on ice. Each sample was washed once with 1 ml cold PBS.

B1: DARPin 926 (designed binder)
chain: MRGSHHHHHHGSDLGKKLLEAARAGQDDEVRILMANGADVNAKDFYGITPLHLAAAYGHLEIVEVLLKHGADVNAHDWNGWTPLHLAAKYGHLEIVEVLLKHGADVNAIDNAGKTPLHLAAAHGHLEIVEVLLKYGADVNAQDKFGKTAFDISIDNGNEDLAEILQKLN
notes: Member of the 9XX collection
Q: How did the Kd [1] turn out when B1 was run?
A: Its Kd is 1 nM.

Q: And the Kd [2]?
A: Its Kd is 1.4 nM.

Q: And the koff [2]?
A: Its koff is 0.0001 s⁻¹.

Q: What about the kon [2] of the same binder?
A: The kon was 70000 M⁻¹ s⁻¹.

B2: 9_26-(G4S)4-G3 (designed binder)
chain: MRGSHHHHHHGSDLGKKLLEAARAGQDDEVRILMANGADVNAKDFYGITPLHLAAAYGHLEIVEVLLKHGADVNAHDWNGWTPLHLAAKYGHLEIVEVLLKHGADVNAIDNAGKTPLHLAAAHGHLEIVEVLLKYGADVNAQDKFGKTAFDISIDNGNEDLAEILQKLGGGGSGGGGSGGGGSGGGGSRSDLGKKLLEAARAGQDDEVRILMANGADVNAKDEYGLTPLYLATAHGHLEIVEVLLKNGADVNAVDAIGFTPLHLAAFIGHLEIAEVLLKHGADVNAQDKFGKTAFDISIGNGNEDLAEILQKLN
modifications: fluorescently labelled in the dissociation assay; dye and site not stated
notes: 20 amino acid (G4S)4 linker; also called 6_20_G
Q: How did the “fold lower off-rate than monovalent G3” value [3] turn out when B2 was run?
A: Its value is 10 fold.

B3: DARPin 929 (designed binder)
chain: MRGSHHHHHHGSDLGKKLLEAARAGQDDEVRILMANGADVNAHDFYGITPLHLAANFGHLEIVEVLLKHGADVNAFDYDNTPLHLAADAGHLEIVEVLLKYGADVNASDRDGHTPLHLAAREGHLEIVEVLLKNGADVNAQDKFGKTAFDISIDNGNEDLAEILQKLN
modifications: Alexa Fluor-488 label in the flow-cytometry kinetics (attachment site not given)
notes: Member of the 9XX collection
Q: How did the Kd [1] turn out when B3 was run?
A: Its Kd is 1 nM.

Q: And the Kd [2]?
A: The Kd was 3.8 nM.

Q: What about the koff [2] of the same binder?
A: Its koff is 0.0008 s⁻¹.

Q: And the kon [2]?
A: The kon was 200000 M⁻¹ s⁻¹.

Q: And the Kd [4]?
A: Its Kd is 33.5 nM.

Q: And the koff [4]?
A: The koff was 0.00221 s⁻¹.

Q: What about the kon [4] of the same binder?
A: The kon was 69000 M⁻¹ s⁻¹.

B4: DARPin H14 (designed binder)
chain: GSDLGKKLLEAARAGQDDEVRILMANGADVNATDIHGHTPLHLAAAMGHLEIVEVLLKNGADVNANDWRGFTPLHLAALNGHLEIVEVLLKNGADVNATDTAGNTPLHLAAWFGHLEIVEVLLKNGADVNAQDKFGKTAFDISIDNGNEDLAEILQKLN
Q: What does the source list for B4?
A: Kd [2]: 0.2 nM; koff [2]: 0.0001 s⁻¹; kon [2]: 410000 M⁻¹ s⁻¹; Kd [4]: 0.97 nM; koff [4]: 0.000179 s⁻¹; kon [4]: 196000 M⁻¹ s⁻¹

B5: 9_29-(G4S)4-G3 (designed binder)
chain: MRGSHHHHHHGSDLGKKLLEAARAGQDDEVRILMANGADVNAHDFYGITPLHLAANFGHLEIVEVLLKHGADVNAFDYDNTPLHLAADAGHLEIVEVLLKYGADVNASDRDGHTPLHLAAREGHLEIVEVLLKNGADVNAQDKFGKTAFDISIDNGNEDLAEILQKLGGGGSGGGGSGGGGSGGGGSRSDLGKKLLEAARAGQDDEVRILMANGADVNAKDEYGLTPLYLATAHGHLEIVEVLLKNGADVNAVDAIGFTPLHLAAFIGHLEIAEVLLKHGADVNAQDKFGKTAFDISIGNGNEDLAEILQKLN
modifications: fluorescently labelled in FIG. 18A (dye and site not carried by the letters)
notes: 20 amino acid (G4S)4 linker; also called 9_20_G
Q: For B5, which “fold lower off-rate than monovalent G3” value [3] is on record?
A: The value was 10 fold.

B6: DARPin G3 (designed binder)
chain: GSDLGKKLLEAARAGQDDEVRILMANGADVNAKDEYGLTPLYLATAHGHLEIVEVLLKNGADVNAVDAIGFTPLHLAAFIGHLEIAEVLLKHGADVNAQDKFGKTAFDISIGNGNEDLAEILQKLN
Q: For B6, which Kd [1] is on record?
A: Its Kd is 0.09 nM.

B7: G3-(G4S)4-9_26 (designed binder)
chain: MRGSHHHHHHGSDLGKKLLEAARAGQDDEVRILMANGADVNAKDEYGLTPLYLATAHGHLEIVEVLLKNGADVNAVDAIGFTPLHLAAFIGHLEIAEVLLKHGADVNAQDKFGKTAFDISIGNGNEDLAEILQKLGGGGSGGGGSGGGGSGGGGSRSDLGKKLLEAARAGQDDEVRILMANGADVNAKDFYGITPLHLAAAYGHLEIVEVLLKHGADVNAHDWNGWTPLHLAAKYGHLEIVEVLLKHGADVNAIDNAGKTPLHLAAAHGHLEIVEVLLKYGADVNAQDKFGKTAFDISIDNGNEDLAEILQKLN
modifications: fluorescently labelled in FIG. 18A (dye and site not carried by the letters)
notes: Opposite orientation of 6_20_G; also called G_20_6
Q: With B7 as the binder, how does the “fold lower off-rate than monovalent G3” value [3] read?
A: The value was 10 fold.
